Laboratory results taken from publication PMC4894967.

Target: ATM/Tel1 kinase from Schizosaccharomyces pombe (S. pombe) (UniProt O74630)
Experiment: cryo-EM structure; single-particle cryo-EM of purified ATM/Tel1, 20-50 ug/ml in 20 mM HEPES pH 8.0, 40 mM KOAc, 5 mM MgCl2, 0.1% trehalose, 2 mM DTT, 0.01% NP-40; 8.7 Å; initial model from negative-stain RCT

stoichiometry N: 2
Substance: ATM/Tel1 kinase from Schizosaccharomyces pombe, O74630 1-2812
